Measured values taken from patent US12630600B2 (MEDIMMUNE LIMITED, priority 2022, dated 2026).
Starred links: 1 amine or outer side, 2 acyl side, 3 side chain; linkers in the order of their positions; H or OH if unused. Non-standard residues stand in square brackets, D forms with d. Groups on a side chain read outwards from the residue. No end group written: not given here. *: point of attachment. C20 diacid = O=C(O)CCCCCCCCCCCCCCCCCCC(=O)*; C18 diacid = O=C(O)CCCCCCCCCCCCCCCCC(=O)*; γGlu = O=C(O)[C@H](CCC(=O)[*:2])N[*:1]; αMeF = C[C@](N)(Cc1ccccc1)C(=O)O; AEEA = NCCOCCOCC(=O)O; Aib = CC(C)(N)C(=O)O

B1: Peptide 415 (peptide)
peptide: H[Aib]QGTFTSDVSK[αMeF]LESK([AEEA-AEEA-γGlu-C18 diacid])RAQDFVRWLEA[Aib]G-OH
modifications: N-terminus assumed
SMILES: CC(C)C[C@H](NC(=O)[C@H](Cc1c[nH]c2ccccc12)NC(=O)[C@H](CCCNC(=N)N)NC(=O)[C@@H](NC(=O)[C@H](Cc1ccccc1)NC(=O)[C@H](CC(=O)O)NC(=O)[C@H](CCC(N)=O)NC(=O)[C@H](C)NC(=O)[C@H](CCCNC(=N)N)NC(=O)[C@H](CCCCNC(=O)COCCOCCNC(=O)COCCOCCNC(=O)CC[C@H](NC(=O)CCCCCCCCCCCCCCCCC(=O)O)C(=O)O)NC(=O)[C@H](CO)NC(=O)[C@H](CCC(=O)O)NC(=O)[C@H](CC(C)C)NC(=O)[C@](C)(Cc1ccccc1)NC(=O)[C@H](CCCCN)NC(=O)[C@H](CO)NC(=O)[C@@H](NC(=O)[C@H](CC(=O)O)NC(=O)[C@H](CO)NC(=O)[C@@H](NC(=O)[C@H](Cc1ccccc1)NC(=O)[C@@H](NC(=O)CNC(=O)[C@H](CCC(N)=O)NC(=O)C(C)(C)NC(=O)[C@@H](N)Cc1c[nH]cn1)[C@@H](C)O)[C@@H](C)O)C(C)C)C(C)C)C(=O)N[C@@H](CCC(=O)O)C(=O)N[C@@H](C)C(=O)NC(C)(C)C(=O)NCC(=O)O
B2: Peptide 416 (peptide)
peptide: H[Aib]QGTFTSDVSK[αMeF]LESK([AEEA-AEEA-γGlu-C20 diacid])RAQDFVRWLEA[Aib]G-OH
modifications: N-terminus assumed
SMILES: CC(C)C[C@H](NC(=O)[C@H](Cc1c[nH]c2ccccc12)NC(=O)[C@H](CCCNC(=N)N)NC(=O)[C@@H](NC(=O)[C@H](Cc1ccccc1)NC(=O)[C@H](CC(=O)O)NC(=O)[C@H](CCC(N)=O)NC(=O)[C@H](C)NC(=O)[C@H](CCCNC(=N)N)NC(=O)[C@H](CCCCNC(=O)COCCOCCNC(=O)COCCOCCNC(=O)CC[C@H](NC(=O)CCCCCCCCCCCCCCCCCCC(=O)O)C(=O)O)NC(=O)[C@H](CO)NC(=O)[C@H](CCC(=O)O)NC(=O)[C@H](CC(C)C)NC(=O)[C@](C)(Cc1ccccc1)NC(=O)[C@H](CCCCN)NC(=O)[C@H](CO)NC(=O)[C@@H](NC(=O)[C@H](CC(=O)O)NC(=O)[C@H](CO)NC(=O)[C@@H](NC(=O)[C@H](Cc1ccccc1)NC(=O)[C@@H](NC(=O)CNC(=O)[C@H](CCC(N)=O)NC(=O)C(C)(C)NC(=O)[C@@H](N)Cc1c[nH]cn1)[C@@H](C)O)[C@@H](C)O)C(C)C)C(C)C)C(=O)N[C@@H](CCC(=O)O)C(=O)N[C@@H](C)C(=O)NC(C)(C)C(=O)NCC(=O)O
B3: Peptide 417 (peptide)
peptide: H[Aib]QGTFTSDVSK[αMeF]LDTK([AEEA-AEEA-γGlu-γGlu-C18 diacid])RAQDFVAWLEA[Aib]G-OH
modifications: N-terminus assumed
SMILES: CC(C)C[C@H](NC(=O)[C@H](Cc1c[nH]c2ccccc12)NC(=O)[C@H](C)NC(=O)[C@@H](NC(=O)[C@H](Cc1ccccc1)NC(=O)[C@H](CC(=O)O)NC(=O)[C@H](CCC(N)=O)NC(=O)[C@H](C)NC(=O)[C@H](CCCNC(=N)N)NC(=O)[C@H](CCCCNC(=O)COCCOCCNC(=O)COCCOCCNC(=O)CC[C@H](NC(=O)CC[C@H](NC(=O)CCCCCCCCCCCCCCCCC(=O)O)C(=O)O)C(=O)O)NC(=O)[C@@H](NC(=O)[C@H](CC(=O)O)NC(=O)[C@H](CC(C)C)NC(=O)[C@](C)(Cc1ccccc1)NC(=O)[C@H](CCCCN)NC(=O)[C@H](CO)NC(=O)[C@@H](NC(=O)[C@H](CC(=O)O)NC(=O)[C@H](CO)NC(=O)[C@@H](NC(=O)[C@H](Cc1ccccc1)NC(=O)[C@@H](NC(=O)CNC(=O)[C@H](CCC(N)=O)NC(=O)C(C)(C)NC(=O)[C@@H](N)Cc1c[nH]cn1)[C@@H](C)O)[C@@H](C)O)C(C)C)[C@@H](C)O)C(C)C)C(=O)N[C@@H](CCC(=O)O)C(=O)N[C@@H](C)C(=O)NC(C)(C)C(=O)NCC(=O)O
B4: Peptide 418 (peptide)
peptide: H[Aib]QGTFTSDVSK[αMeF]LDTK([AEEA-AEEA-γGlu-γGlu-C20 diacid])RAQDFVAWLEA[Aib]G-OH
modifications: N-terminus assumed
SMILES: CC(C)C[C@H](NC(=O)[C@H](Cc1c[nH]c2ccccc12)NC(=O)[C@H](C)NC(=O)[C@@H](NC(=O)[C@H](Cc1ccccc1)NC(=O)[C@H](CC(=O)O)NC(=O)[C@H](CCC(N)=O)NC(=O)[C@H](C)NC(=O)[C@H](CCCNC(=N)N)NC(=O)[C@H](CCCCNC(=O)COCCOCCNC(=O)COCCOCCNC(=O)CC[C@H](NC(=O)CC[C@H](NC(=O)CCCCCCCCCCCCCCCCCCC(=O)O)C(=O)O)C(=O)O)NC(=O)[C@@H](NC(=O)[C@H](CC(=O)O)NC(=O)[C@H](CC(C)C)NC(=O)[C@](C)(Cc1ccccc1)NC(=O)[C@H](CCCCN)NC(=O)[C@H](CO)NC(=O)[C@@H](NC(=O)[C@H](CC(=O)O)NC(=O)[C@H](CO)NC(=O)[C@@H](NC(=O)[C@H](Cc1ccccc1)NC(=O)[C@@H](NC(=O)CNC(=O)[C@H](CCC(N)=O)NC(=O)C(C)(C)NC(=O)[C@@H](N)Cc1c[nH]cn1)[C@@H](C)O)[C@@H](C)O)C(C)C)[C@@H](C)O)C(C)C)C(=O)N[C@@H](CCC(=O)O)C(=O)N[C@@H](C)C(=O)NC(C)(C)C(=O)NCC(=O)O
B5: Peptide 419 (peptide)
peptide: H[Aib]QGTFTSDVSK[αMeF]LDTK([AEEA-AEEA-γGlu-C18 diacid])RAQDFVRWLE[Aib]E-OH
modifications: N-terminus assumed
SMILES: CC(C)C[C@H](NC(=O)[C@H](Cc1c[nH]c2ccccc12)NC(=O)[C@H](CCCNC(=N)N)NC(=O)[C@@H](NC(=O)[C@H](Cc1ccccc1)NC(=O)[C@H](CC(=O)O)NC(=O)[C@H](CCC(N)=O)NC(=O)[C@H](C)NC(=O)[C@H](CCCNC(=N)N)NC(=O)[C@H](CCCCNC(=O)COCCOCCNC(=O)COCCOCCNC(=O)CC[C@H](NC(=O)CCCCCCCCCCCCCCCCC(=O)O)C(=O)O)NC(=O)[C@@H](NC(=O)[C@H](CC(=O)O)NC(=O)[C@H](CC(C)C)NC(=O)[C@](C)(Cc1ccccc1)NC(=O)[C@H](CCCCN)NC(=O)[C@H](CO)NC(=O)[C@@H](NC(=O)[C@H](CC(=O)O)NC(=O)[C@H](CO)NC(=O)[C@@H](NC(=O)[C@H](Cc1ccccc1)NC(=O)[C@@H](NC(=O)CNC(=O)[C@H](CCC(N)=O)NC(=O)C(C)(C)NC(=O)[C@@H](N)Cc1c[nH]cn1)[C@@H](C)O)[C@@H](C)O)C(C)C)[C@@H](C)O)C(C)C)C(=O)N[C@@H](CCC(=O)O)C(=O)NC(C)(C)C(=O)N[C@@H](CCC(=O)O)C(=O)O
B6: Peptide 420 (peptide)
peptide: H[Aib]QGTFTSDVSK[αMeF]LDKK([AEEA-AEEA-γGlu-C18 diacid])RAQDFVRWLL[Aib]E-NH2
modifications: N-terminus assumed
SMILES: CC(C)C[C@H](NC(=O)[C@H](Cc1c[nH]c2ccccc12)NC(=O)[C@H](CCCNC(=N)N)NC(=O)[C@@H](NC(=O)[C@H](Cc1ccccc1)NC(=O)[C@H](CC(=O)O)NC(=O)[C@H](CCC(N)=O)NC(=O)[C@H](C)NC(=O)[C@H](CCCNC(=N)N)NC(=O)[C@H](CCCCNC(=O)COCCOCCNC(=O)COCCOCCNC(=O)CC[C@H](NC(=O)CCCCCCCCCCCCCCCCC(=O)O)C(=O)O)NC(=O)[C@H](CCCCN)NC(=O)[C@H](CC(=O)O)NC(=O)[C@H](CC(C)C)NC(=O)[C@](C)(Cc1ccccc1)NC(=O)[C@H](CCCCN)NC(=O)[C@H](CO)NC(=O)[C@@H](NC(=O)[C@H](CC(=O)O)NC(=O)[C@H](CO)NC(=O)[C@@H](NC(=O)[C@H](Cc1ccccc1)NC(=O)[C@@H](NC(=O)CNC(=O)[C@H](CCC(N)=O)NC(=O)C(C)(C)NC(=O)[C@@H](N)Cc1c[nH]cn1)[C@@H](C)O)[C@@H](C)O)C(C)C)C(C)C)C(=O)N[C@@H](CC(C)C)C(=O)NC(C)(C)C(=O)N[C@@H](CCC(=O)O)C(N)=O
B7: Peptide 421 (peptide)
peptide: H[Aib]QGTFTSDVSK[αMeF]LDRK([AEEA-AEEA-γGlu-C18 diacid])RAQDFVRWLL[Aib]TE-OH
modifications: N-terminus assumed
SMILES: CC(C)C[C@H](NC(=O)[C@H](Cc1c[nH]c2ccccc12)NC(=O)[C@H](CCCNC(=N)N)NC(=O)[C@@H](NC(=O)[C@H](Cc1ccccc1)NC(=O)[C@H](CC(=O)O)NC(=O)[C@H](CCC(N)=O)NC(=O)[C@H](C)NC(=O)[C@H](CCCNC(=N)N)NC(=O)[C@H](CCCCNC(=O)COCCOCCNC(=O)COCCOCCNC(=O)CC[C@H](NC(=O)CCCCCCCCCCCCCCCCC(=O)O)C(=O)O)NC(=O)[C@H](CCCNC(=N)N)NC(=O)[C@H](CC(=O)O)NC(=O)[C@H](CC(C)C)NC(=O)[C@](C)(Cc1ccccc1)NC(=O)[C@H](CCCCN)NC(=O)[C@H](CO)NC(=O)[C@@H](NC(=O)[C@H](CC(=O)O)NC(=O)[C@H](CO)NC(=O)[C@@H](NC(=O)[C@H](Cc1ccccc1)NC(=O)[C@@H](NC(=O)CNC(=O)[C@H](CCC(N)=O)NC(=O)C(C)(C)NC(=O)[C@@H](N)Cc1c[nH]cn1)[C@@H](C)O)[C@@H](C)O)C(C)C)C(C)C)C(=O)N[C@@H](CC(C)C)C(=O)NC(C)(C)C(=O)N[C@H](C(=O)N[C@@H](CCC(=O)O)C(=O)O)[C@@H](C)O

What follows are binders tested against human GLP-1 receptor (human, UniProt P43220) (assay: cell-based or functional assay).
For B1, the “cAMP production EC50” value was 0.0147 nM.
With B2 the “cAMP production EC50” value was 0.0677 nM.
For B3, the “cAMP production EC50” value was 0.0339 nM.
In the case of B4, the “cAMP production EC50” value is reported as 0.0881 nM.
For B5, the “cAMP production EC50” value was 0.0969 nM.
For B6, the “cAMP production EC50” value was 0.0231 nM.
With B7 the “cAMP production EC50” value was 0.0873 nM.

What follows are binders tested against human glucagon receptor (human, UniProt P47871) (assay: cell-based or functional assay).
With B1 the “cAMP production EC50” value was 0.301 nM.
With B2 the “cAMP production EC50” value was 0.581 nM.
In the case of B3, the “cAMP production EC50” value is reported as 0.0164 nM.
With B4 the “cAMP production EC50” value was 0.222 nM.
For B5, the “cAMP production EC50” value was 0.264 nM.
B6 was tested, and the “cAMP production EC50” value was 0.0369 nM.
For B7, the “cAMP production EC50” value was 0.18 nM.
